Tests used:
IgG [1] = assay: Multiplex bead-based immunoassay: seroprevalence (finite mixture models or negative control cutoff); assay type: binding, pregnant women; conditions: for SeroPrev Delivery %: 239 pregnant Mozambican women followed 2011-2012; for Seroprevalence MQ (%): IPTp with mefloquine; for Seroprevalence K (%): Kenya; for Seroprevalence K (%) / Seroprevalence M (%) / Seroprevalence B (%) / Seroprevalence G (%): at delivery; for MQ (OR): Placebo as reference; for M (OR) / Seroprevalence M (%): Mozambique; for Seroprevalence PL (%): Placebo group; for Seroprevalence A (%) / A (OR): anemia; for A (OR): Non-A as reference; for Seroprevalence Non-A (%): non anemia; for Seroprevalence B (%): Benin; for G (OR) / Seroprevalence G (%): Gabon; for Seroprevalence SP (%): IPTp with sulfadoxine-pyrimethamine; for SP (OR): MQ as reference; for SeroPrev PW Bcn (%): seroprevalence among pregnant Spanish women never exposed to malaria; for Decrease (OR): seroprevalence odds ratio 2010 vs 2003/5, Mozambique; for Decrease (OR) / Increase (OR): adjusted; for Increase (OR): seroprevalence odds ratio 2011/12 vs 2010, Mozambique
Excerpt: (§1) Two multiplex suspension array panels were constructed to quantify IgG responses against P. falciparum recombinant proteins and synthetic peptides, using the xMAP™ technology and the Luminex® 100/200™ System (Luminex® Corp., Austin, Tex.). MagPlex® microspheres (magnetic carboxylated polystyrene microparticles, 5.6 μm) with different spectral signatures were selected for each protein (DBL3X, DBL5ϵ, DBL6ϵ, AMA1 and MSP119), peptides (25 VAR2CSA peptides and pCSP), tetanus toxin and bovine serum albumin (BSA). Antigens were covalently coupled to beads following a modification of the Luminex® Corporation protocol. Protein and peptide multiplex arrays were prepared by pooling together equal volumes of coated beads. Plasma samples or the product of DBS elution were analyzed in duplicate at dilution 1:400 for the protein array and 1:100 for the peptide array. A hyperimmune plasma pool composed by 23 plasmas from malaria infected Mozambican pregnant women (HIP-VAR2CSA) was included in each assay plate, in addition to blanks (wells without sample) to assess background levels. A minimum of 50 microspheres were read per spectral signature and results were exported as crude median fluorescent intensity ([…]). Duplicates were averaged and background MFIs were subtracted. A total of 224 plates were analyzed and the intra-assay variation (mean CV of replicates from 20 plasma samples per plate) ranged from 1.4% to 7.3% for the protein array and from 2.5% to 12.4% for the peptide array. The inter-assay variation (variability of positive pool [HIP-VAR2CSA] between 224 plates) was 5% for the protein array and 26% for the peptide array. Results were normalized (nMFI) to account for plate-to-plate variation by […] the background subtracted MFI of each sample with the value of the positive pool in the same plate and dividing by the median of positive pools in all plates.
(§2) Antibodies were eluted from DBS from Gabon, […] and Kenya, as previously described. Briefly, to achieve a concentration of eluted blood proteins equivalent to a 1:50 plasma dilution antibodies were eluted from four spots of approximately 3 mm in diameter with 200 μl Luminex® assay buffer (1% BSA, 0.05% sodium azide in filtrated PBS [Phosphate-buffered saline]). […]. Controls blood drops were artificially prepared using fresh erythrocytes (blood type 0, assuming a hematocrit approximately of 50%) and freeze plasma from 49 Spanish pregnant women. Filter papers were stored avoiding humidity at −20° C. in Barcelona.
(§3) Presence or absence of antibodies was defined by finite mixture models (FMM) for pregnancy-specific antigens (VAR2CSA peptides and recombinant domains) and by the mean plus 3 standard deviation (SD) of IgG response from pregnant women from Barcelona for general malaria antigens (AMA1, MSP119, and pCSP).
(§4) Data was fitted to a normal distribution by logarithmic transformation of nMFIs. Participant's baseline characteristics and parasitological outcomes were compared between study times and areas by univariate analysis (Fisher's tests for binary outcomes or t-Student test for continuous outcomes). Responses were considered not restricted to malaria when seroprevalences were 5% or high among Spanish pregnant women.
Seroprevalences between countries (Benin, Gabon and Mozambique for HIV-uninfected and Kenya and Mozambique for HIV-infected), between IPTp intervention group (MQ vs SP for HIV-uninfected and MQ vs Placebo for HIV infected) and anemia status were compared by logistic regression models adjusted by parity, age and treatment.
The modification of the associations by HIV infection or parity was assessed by including interaction terms into the regression models.

IgG [2] = assay: Antibody dynamics during pregnancy (time to double, half-life, sero-reversion) from bead-based immunoassay; assay type: binding, pregnant Mozambican women; conditions: for Antibody dynamics Time to double weeks (95% CI): women with P. falciparum infection on follow-up, log-linear mixed-effects model
Excerpt: as §1
The adjusted effect of infection on antibody levels was analyzed using log-linear mixed-effects regression models incorporating Gaussian random intercepts. […] Time to double the antibody levels (T2x) and half-lives were calculated in weeks from the estimated rates and the boundaries at 95% confidence interval obtained from mixed-effects models for subjects suffering a P. falciparum infection at follow-up independent of antibody status at recruitment (Ab[−or+]/Pf+) and subjects seropositive at recruitment and no infection detected on follow-up (Ab+/Pf−), respectively. In situations that the increase rate is a negative value (rate below 1) or the decay rate is a positive value (rate above 1), the calculated T2x or half-life was reported as infinity. Similarly, the time to sero-reversion was calculated for these subjects using the ratio of the seropositivity cutoff by the average antibody titers at recruitment as decay, i.e. how many times the average titers need to be reduced to be equal the cutoff.

IgG [3] = assay: Multiplex bead-based immunoassay (Luminex): IgG levels (nMFI) against antigens, compared between groups; assay type: binding, pregnant women; conditions: for Immunoreactivity: recognition by IgGs at levels above BSA recognition: 641 pregnant Mozambican women 2003-2012, mean nMFI above mean BSA nMFI plus 3 SD; for Infection during pregnacy Infection vs no-infection ratio (95% CI): Mozambican women followed 2011-2012; for Exposure dependence Decrease 2010 vs 2003-2005 Ratio (95% CI) / Exposure dependence Increase 2011-2012 vs 2010 Ratio (95% CI): nMFI ratio at delivery, Mozambique, adjusted by parity, age, treatment and HIV; for PW Mz vs PW Bcn Ratio (95% CI) / Parasite density Low vs High ratio (95% CI): nMFI ratio; for PW Mz vs PW Bcn Ratio (95% CI): pregnant Mozambican women vs pregnant Spanish women (N=49); for Parasite density Low vs High ratio (95% CI): below or above 200 genomes per microliter
Excerpt: as §1, §2, §3, §4
Linear regression models were used to compare antibody levels from Mozambican and Spanish pregnant women. The capacity of antibody levels to mimic malaria trends in Mozambique was analyzed by linear regression models (2010 was compared with 2003-2005 corresponding to a trend of malaria decrease and 2011-2012 with 2010 to a trend of increase) adjusted by treatment, parity, age and HIV.
The impact of P. falciparum infection during pregnancy on antibodies at delivery was assessed in linear regression models adjusted by age, parity, HIV and treatment. Changes in antibody levels due to parasite density (below or above 200) were assessed by linear regression models adjusted by age, parity, HIV and treatment. […]

[4] = HIV infected, Kenya as reference
[5] = HIV uninfected, Benin as reference
[6] = Mozambican pregnant women at delivery

B1: pcsp: circumsporozoite peptide of 64 aminoacids (NVDP[NANP]15) (peptide)
peptide: NVDPNANPNANPNANPNANPNANPNANPNANPNANPNANPNANPNANPNANPNANPNANPNANP
- SeroPrev Delivery % (IgG [1]): 64%
- Seroprevalence MQ (%) (IgG [1]; HIV infected): 12%
- Seroprevalence K (%) (IgG [1]; HIV infected): 21%
- MQ (OR) (IgG [1]; HIV infected): 0.69 (0.44; 1.07)
- M (OR) (IgG [1]; [4]): 0.41 (0.26; 0.64)
- Seroprevalence M (%) (IgG [1]; HIV infected): 10%
- Seroprevalence PL (%) (IgG [1]; HIV infected): 17%
- Seroprevalence A (%) (IgG [1]; HIV infected): 12%
- A (OR) (IgG [1]; HIV infected): 0.86 (0.52; 1.41)
- Seroprevalence Non-A (%) (IgG [1]; HIV infected): 17%
- Seroprevalence B (%) (IgG [1]; HIV uninfected): 44%
- G (OR) (IgG [1]; [5]): 0.37 (0.24; 0.57)
- Seroprevalence G (%) (IgG [1]; HIV uninfected): 23%
- Seroprevalence MQ (%) (IgG [1]; HIV uninfected): 31%
- Seroprevalence SP (%) (IgG [1]; HIV uninfected): 34%
- M (OR) (IgG [1]; [5]): 0.19 (0.14; 0.26)
- Seroprevalence M (%) (IgG [1]; HIV uninfected): 13%
- SP (OR) (IgG [1]; HIV uninfected): 1.08 (0.84; 1.38)
- Seroprevalence A (%) (IgG [1]; HIV uninfected): 34%
- A (OR) (IgG [1]; HIV uninfected): 1.19 (0.94; 1.51)
- Seroprevalence Non-A (%) (IgG [1]; HIV uninfected): 31%
- Seroprevalence 2003/4 (%) (IgG [1]; [6]): 48%
- Seroprevalence 2005 (%) (IgG [1]; [6]): 57%
- Seroprevalence 2010 (%) (IgG [1]; [6]): 36%
- Seroprevalence 2011 (%) (IgG [1]; [6]): 40%
- Seroprevalence 2012 (%) (IgG [1]; [6]): 46%
- SeroPrev PW Bcn (%) (IgG [1]): 10%
- Decrease (OR) (IgG [1]): 0.43 (0.27; 0.69)
- Increase (OR) (IgG [1]): 1.19 (0.80; 1.78)
- Antibody dynamics Time to double weeks (95% CI) (IgG [2]): 51.33 (22.30; ∞) weeks
- Immunoreactivity: recognition by IgGs at levels above BSA recognition (IgG [3]): above BSA recognition
- Infection during pregnacy Infection vs no-infection ratio (95% CI) (IgG [3]; nMFI at delivery, adjusted): 3.1 (1.75; 5.49)
- Exposure dependence Decrease 2010 vs 2003-2005 Ratio (95% CI) (IgG [3]): 0.49 (0.34; 0.71)
- Exposure dependence Increase 2011-2012 vs 2010 Ratio (95% CI) (IgG [3]): 1.1 (0.80; 1.52)
- PW Mz vs PW Bcn Ratio (95% CI) (IgG [3]): 8.2 (4.84; 13.87)
- Parasite density Low vs High ratio (95% CI) (IgG [3]; adjusted): 1.81 (0.75; 4.37)

B2: MSP119: recombinant merozoite surface protein-1, 19-kDa, from 3D7 strain (protein)
chain: NISQHQCVKKQCPENSGCFRHLDEREECKCLLNYKQEGDKCVENPNPTCNENNGGCDADATCTEEDSGSSRKKITCECTKPDSYPLFDGIFCS
- SeroPrev Delivery % (IgG [1]): 89%
- Seroprevalence MQ (%) (IgG [1]; HIV infected): 85%
- Seroprevalence K (%) (IgG [1]; HIV infected): 88%
- MQ (OR) (IgG [1]; HIV infected): 0.84 (0.54; 1.32)
- M (OR) (IgG [1]; [4]): 0.73 (0.46; 1.16)
- Seroprevalence M (%) (IgG [1]; HIV infected): 85%
- Seroprevalence PL (%) (IgG [1]; HIV infected): 87%
- Seroprevalence A (%) (IgG [1]; HIV infected): 85%
- A (OR) (IgG [1]; HIV infected): 0.90 (0.56; 1.45)
- Seroprevalence Non-A (%) (IgG [1]; HIV infected): 87%
- Seroprevalence B (%) (IgG [1]; HIV uninfected): 99%
- G (OR) (IgG [1]; [5]): 0.08 (0.04; 0.18)
- Seroprevalence G (%) (IgG [1]; HIV uninfected): 84%
- Seroprevalence MQ (%) (IgG [1]; HIV uninfected): 94%
- Seroprevalence SP (%) (IgG [1]; HIV uninfected): 94%
- M (OR) (IgG [1]; [5]): 0.13 (0.07; 0.26)
- Seroprevalence M (%) (IgG [1]; HIV uninfected): 89%
- SP (OR) (IgG [1]; HIV uninfected): 1.02 (0.63; 1.66)
- Seroprevalence A (%) (IgG [1]; HIV uninfected): 94%
- A (OR) (IgG [1]; HIV uninfected): 0.95 (0.60; 1.51)
- Seroprevalence Non-A (%) (IgG [1]; HIV uninfected): 95%
- Seroprevalence in Tanzania (IgG [1]; HIV-uninfected women, area of Tanzania where no malaria infection was observed): 48%
- Seroprevalence in 2003-2005 (IgG [1]; Mozambican pregnant women at delivery, 2003-2005 pooled): 94%
- Seroprevalence 2003/4 (%) (IgG [1]; [6]): 90%
- Seroprevalence 2005 (%) (IgG [1]; [6]): 99%
- Seroprevalence 2010 (%) (IgG [1]; [6]): 94%
- Seroprevalence 2011 (%) (IgG [1]; [6]): 84%
- Seroprevalence in 2011-2012 (IgG [1]; Mozambican pregnant women at delivery, 2011-2012 pooled): 87%
- Seroprevalence 2012 (%) (IgG [1]; [6]): 90%
- SeroPrev PW Bcn (%) (IgG [1]): 4%
- Decrease (OR) (IgG [1]): 0.81 (0.31; 2.14)
- Increase (OR) (IgG [1]): 0.37 (0.19; 0.74)
- Antibody dynamics Sero-revertion weeks (95% CI) (IgG [2]; time to sero-negativisation, seropositive at recruitment, no infection on follow-up): 385.42 (207.36; 2728.50) weeks
- Antibody dynamics Time to double weeks (95% CI) (IgG [2]): 31.69 (15.65; ∞) weeks
- Immunoreactivity: recognition by IgGs at levels above BSA recognition (IgG [3]): above BSA recognition
- Infection during pregnacy Infection vs no-infection ratio (95% CI) (IgG [3]; nMFI at delivery, adjusted): 3.69 (1.83; 7.46)
- Parity MG vs PG ratio (95% CI) (IgG [3]; nMFI at delivery, multigravid vs primigravid Mozambican women, adjusted): 1.6 (0.6; 4.29)
- Exposure dependence Decrease 2010 vs 2003-2005 Ratio (95% CI) (IgG [3]): 0.43 (0.28; 0.65)
- Exposure dependence Increase 2011-2012 vs 2010 Ratio (95% CI) (IgG [3]): 0.88 (0.60; 1.30)
- PW Mz vs PW Bcn Ratio (95% CI) (IgG [3]): 85.07 (46.72; 154.9)
- Parasite density Low vs High ratio (95% CI) (IgG [3]; adjusted): 2.55 (0.98; 6.63)

Reference: US20200141935A1, “SYSTEM, METHOD, APPARATUS AND DIAGNOSTIC TEST FOR PREGNANCY” (BARCELONA INSTITUTE FOR GLOBAL HEALTH, priority 2017, published 2020)
